Measured values taken from patent US20020019014A1, “Methods of identifying prosaposin receptor agonists and antagonists” (priority 1997, published 2002).
Entries after “also recorded” stand apart in the source; their conditions may differ. Read-outs that look alike come from different tables or passages of the source.

B1: prosaposin: 70 kilodalton glycoprotein, precursor of saposins A, B, C and D (protein, UniProt P07602 17-524, looked up)
pro-form: GPVLGLKECTRGSAVWCQNVKTASDCGAVKHCLQTVWNKPTVKSLPCDICKDVVTAAGDMLKDNATEEEILVYLEKTCDWLPKPNMSASCKEIVDSYLPVILDIIKGEMSRPGEVCSALNLCESLQKHLAELNHQKQLESNKIPELDMTEVVAPFMANIPLLLYPQDGPRSKPQPKDNGDVCQDCIQMVTDIQTAVRTNSTFVQALVEHVKEECDRLGPGMADICKNYISQYSEIAIQMMMHMQPKEICALVGFCDEVKEMPMQTLVPAKVASKNVIPALELVEPIKKHEVPAKSDVYCEVCEFLVKEVTKLIDNNKTEKEILDAFDKMCSKLPKSLSEECQEVVDTYGSSILSILLEEVSPELVCSMLHLCSGTRLPALTVHVTQPKDGGFCEVCKKLVGYLDRNLEKNSTKQEILAALEKGCSFLPDPYQKQCDQFVAEYEPVLIEILVEVMDPSFVCLKIGACPSAHKPLLGTEKCIWGPSYWCQNTETAAQCNAVEHCKRHVWN
modifications: pro-form
notes: 70 kilodalton glycoprotein, precursor of saposins A, B, C and D
B2: saposin A: saposin from prosaposin; inactive compound that binds the receptor without stimulating effector functions (protein, UniProt P07602 60-142, looked up)
Saposin-A: SLPCDICKDVVTAAGDMLKDNATEEEILVYLEKTCDWLPKPNMSASCKEIVDSYLPVILDIIKGEMSRPGEVCSALNLCESLQ
modifications: Saposin-A
B3: saposin C: heat-stable glycoprotein generated by proteolytic processing of prosaposin (protein, UniProt P07602 311-390, looked up)
Saposin-C: SDVYCEVCEFLVKEVTKLIDNNKTEKEILDAFDKMCSKLPKSLSEECQEVVDTYGSSILSILLEEVSPELVCSMLHLCSG
modifications: Saposin-C

Columns and labels:
MAPK = assay: MAP kinase (MAPK) phosphorylation assay; assay type: cell-based; conditions: after binding to the prosaposin receptor
Description: PC12 cells are grown to 85% confluence in DME high glucose media containing 10% FBS, 5% horse serum, 100 U/ml penicillin, 100 μg/ml streptomycin and 250 pg/ml fimgizone. Approximately 2×10^6 cells per 100 mm plate are placed in serum-free media for 24 hours prior to addition of compounds capable of binding to the prosaposin receptor. Positive controls are as described previously. Cells are stimulated with the compound of interest, then lysed on ice in 1 ml of 50 mM Tris-HCl, pH 8.0, 150 mM NaCl, 1 mM EGTA, pH 8.0, 100 mM NaF, pH 8.0, 10% glycerol, 1.5 mM MgCl2. 1% (v/v) Triton X-100, 1 mM sodium orthovanadate, 1 mM phenylmethylsulfonyl fluoride (PMSF), 10 μg/ml leupeptin, 20 μg/ml aprotinin. Unsolubilized materials are removed by ultracentrifugation at 12,000 x g at4° C.
Equal amounts of cell lysates are resolved by sodium dodecyl sulfate-polyacrylamide gel electrophoresis (SDS-PAGE) and transferred to a PVDF membrane (Millipore, Bedford, Mass.). Phosphorylated MAPK is identified using PhosphoPlus™ MAPK antibody and an alkaline phosphatase conjugated secondary antibody that emits light in the presence of a chemiluminescent substrate (New England Biolabs, Beverly, Mass.). […] Densitometric data are expressed as a ratio of MAPK-P absorbance units divided by MAPK-C absorbance units. […]

[1] = system: NS20Y neuroblastoma cells; conditions: as described in U.S. Pat. No. 5,571,787 and PCT/US94/08453; cited from earlier work
NS20Y cells = conditions: as described in U.S. Pat. No. 5,571,787 and PCT/US94/08453, cited from earlier work
[2] = system: Newborn mouse cerebellar explants; conditions: as described in U.S. Pat. No. 5,571,787 and PCT/US94/08453; cited from earlier work
prosaposin receptor [3] = conditions: cited from earlier work
several proteins = conditions: cited from earlier work
prosaposin receptor [4] = conditions: cited from earlier work; remark: listed apart in the source

| Molecule | phosphorylation of MAPK (MAPK) | neurite outgrowth [1] | prevention of neural cell death (NS20Y cells) | prevention of neural cell death (NS20Y cells; listed as Prosaposin) | stimulation of myelination [2] | binding to receptor (prosaposin receptor [3]) | incorporation of 32P into several proteins (several proteins) | stimulation of receptor effector functions (prosaposin receptor [4]) |
| --- | --- | --- | --- | --- | --- | --- | --- | --- |
| B1 | stimulate phosphorylation of MAPK | induce neurite outgrowth | prevent neural cell death | prevent neuronal cell death | stimulate myelination | binds to a cell surface receptor | stimulates incorporation of ^32P into several proteins | – |
| B2 | – | – | – | – | – | binds to the receptor | – | without stimulating any of its effector functions |
| B3 | stimulate phosphorylation of MAPK | induce neurite outgrowth | prevent neuronal cell death; also recorded: prevent neural cell death | – | stimulate myelination | – | – | – |
